B1: Focal adhesion kinase 1 (Homo sapiens), Q05397 (parent)
chain: MAAAYLDPNLNHTPNSSTKTHLGTGMERSPGAMERVLKVFHYFESNSEPTTWASIIRHGDATDVRGIIQKIVDSHKVKHVACYGFRLSHLRSEEVHWLHVDMGVSSVREKYELAHPPEEWKYELRIRYLPKGFLNQFTEDKPTLNFFYQQVKSDYMLEIADQVDQEIALKLGCLEIRRSYWEMRGNALEKKSNYEVLEKDVGLKRFFPKSLLDSVKAKTLRKLIQQTFRQFANLNREESILKFFEILSPVYRFDKECFKCALGSSWIISVELAIGPEEGISYLTDKGCNPTHLADFTQVQTIQYSNSEDKDRKGMLQLKIAGAPEPLTVTAPSLTIAENMADLIDGYCRLVNGTSQSFIIRPQKEGERALPSIPKLANSEKQGMRTHAVSVSETDDYAEIIDEEDTYTMPSTRDYEIQRERIELGRCIGEGQFGDVHQGIYMSPENPALAVAIKTCKNCTSDSVREKFLQEALTMRQFDHPHIVKLIGVITENPVWIIMELCTLGELRSFLQVRKYSLDLASLILYAYQLSTALAYLESKRFVHRDIAARNVLVSSNDCVKLGDFGLSRYMEDSTYYKASKGKLPIKWMAPESINFRRFTSASDVWMFGVCMWEILMHGVKPFQGVKNNDVIGRIENGERLPMPPNCPPTLYSLMTKCWAYDPSRRPRFTELKAQLSTILEEEKAQQEERMRMESRRQATVSWDSGGSDEAPPKPSRPGYPSPRSSEGFYPSPQHMVQTNHYQVSGYPGSHGITAMAGSIYPGQASLLDQTDSWNHRPQEIAMWQPNVEDSTVLDLRGIGQVLPTHLMEERLIRQQQEMEEDQRWLEKEERFLKPDVRLSRGSIDREDGSLQGPIGNQHIYQPVGKPDPAAPPKKPPRPGAPGHLGSLASLSSPADSYNEGVKLQPQEISPPPTANLDRSNDKVYENVTGLVKAVIEMSSKIQPAPPEEYVPMVKEVGLALRTLLATVDETIPLLPASTHREIEMAQKLLNSDLGELINKMKLAQQYVMTSLQQEYKKQMLTAAHALAVDAKNLLDVIDQARLKMLGQTRPH

Variants of: B1
Conditions: with tln1_chick TLN1, P54939
Chain of tln1_chick TLN1, P54939 (P54939 whole entry): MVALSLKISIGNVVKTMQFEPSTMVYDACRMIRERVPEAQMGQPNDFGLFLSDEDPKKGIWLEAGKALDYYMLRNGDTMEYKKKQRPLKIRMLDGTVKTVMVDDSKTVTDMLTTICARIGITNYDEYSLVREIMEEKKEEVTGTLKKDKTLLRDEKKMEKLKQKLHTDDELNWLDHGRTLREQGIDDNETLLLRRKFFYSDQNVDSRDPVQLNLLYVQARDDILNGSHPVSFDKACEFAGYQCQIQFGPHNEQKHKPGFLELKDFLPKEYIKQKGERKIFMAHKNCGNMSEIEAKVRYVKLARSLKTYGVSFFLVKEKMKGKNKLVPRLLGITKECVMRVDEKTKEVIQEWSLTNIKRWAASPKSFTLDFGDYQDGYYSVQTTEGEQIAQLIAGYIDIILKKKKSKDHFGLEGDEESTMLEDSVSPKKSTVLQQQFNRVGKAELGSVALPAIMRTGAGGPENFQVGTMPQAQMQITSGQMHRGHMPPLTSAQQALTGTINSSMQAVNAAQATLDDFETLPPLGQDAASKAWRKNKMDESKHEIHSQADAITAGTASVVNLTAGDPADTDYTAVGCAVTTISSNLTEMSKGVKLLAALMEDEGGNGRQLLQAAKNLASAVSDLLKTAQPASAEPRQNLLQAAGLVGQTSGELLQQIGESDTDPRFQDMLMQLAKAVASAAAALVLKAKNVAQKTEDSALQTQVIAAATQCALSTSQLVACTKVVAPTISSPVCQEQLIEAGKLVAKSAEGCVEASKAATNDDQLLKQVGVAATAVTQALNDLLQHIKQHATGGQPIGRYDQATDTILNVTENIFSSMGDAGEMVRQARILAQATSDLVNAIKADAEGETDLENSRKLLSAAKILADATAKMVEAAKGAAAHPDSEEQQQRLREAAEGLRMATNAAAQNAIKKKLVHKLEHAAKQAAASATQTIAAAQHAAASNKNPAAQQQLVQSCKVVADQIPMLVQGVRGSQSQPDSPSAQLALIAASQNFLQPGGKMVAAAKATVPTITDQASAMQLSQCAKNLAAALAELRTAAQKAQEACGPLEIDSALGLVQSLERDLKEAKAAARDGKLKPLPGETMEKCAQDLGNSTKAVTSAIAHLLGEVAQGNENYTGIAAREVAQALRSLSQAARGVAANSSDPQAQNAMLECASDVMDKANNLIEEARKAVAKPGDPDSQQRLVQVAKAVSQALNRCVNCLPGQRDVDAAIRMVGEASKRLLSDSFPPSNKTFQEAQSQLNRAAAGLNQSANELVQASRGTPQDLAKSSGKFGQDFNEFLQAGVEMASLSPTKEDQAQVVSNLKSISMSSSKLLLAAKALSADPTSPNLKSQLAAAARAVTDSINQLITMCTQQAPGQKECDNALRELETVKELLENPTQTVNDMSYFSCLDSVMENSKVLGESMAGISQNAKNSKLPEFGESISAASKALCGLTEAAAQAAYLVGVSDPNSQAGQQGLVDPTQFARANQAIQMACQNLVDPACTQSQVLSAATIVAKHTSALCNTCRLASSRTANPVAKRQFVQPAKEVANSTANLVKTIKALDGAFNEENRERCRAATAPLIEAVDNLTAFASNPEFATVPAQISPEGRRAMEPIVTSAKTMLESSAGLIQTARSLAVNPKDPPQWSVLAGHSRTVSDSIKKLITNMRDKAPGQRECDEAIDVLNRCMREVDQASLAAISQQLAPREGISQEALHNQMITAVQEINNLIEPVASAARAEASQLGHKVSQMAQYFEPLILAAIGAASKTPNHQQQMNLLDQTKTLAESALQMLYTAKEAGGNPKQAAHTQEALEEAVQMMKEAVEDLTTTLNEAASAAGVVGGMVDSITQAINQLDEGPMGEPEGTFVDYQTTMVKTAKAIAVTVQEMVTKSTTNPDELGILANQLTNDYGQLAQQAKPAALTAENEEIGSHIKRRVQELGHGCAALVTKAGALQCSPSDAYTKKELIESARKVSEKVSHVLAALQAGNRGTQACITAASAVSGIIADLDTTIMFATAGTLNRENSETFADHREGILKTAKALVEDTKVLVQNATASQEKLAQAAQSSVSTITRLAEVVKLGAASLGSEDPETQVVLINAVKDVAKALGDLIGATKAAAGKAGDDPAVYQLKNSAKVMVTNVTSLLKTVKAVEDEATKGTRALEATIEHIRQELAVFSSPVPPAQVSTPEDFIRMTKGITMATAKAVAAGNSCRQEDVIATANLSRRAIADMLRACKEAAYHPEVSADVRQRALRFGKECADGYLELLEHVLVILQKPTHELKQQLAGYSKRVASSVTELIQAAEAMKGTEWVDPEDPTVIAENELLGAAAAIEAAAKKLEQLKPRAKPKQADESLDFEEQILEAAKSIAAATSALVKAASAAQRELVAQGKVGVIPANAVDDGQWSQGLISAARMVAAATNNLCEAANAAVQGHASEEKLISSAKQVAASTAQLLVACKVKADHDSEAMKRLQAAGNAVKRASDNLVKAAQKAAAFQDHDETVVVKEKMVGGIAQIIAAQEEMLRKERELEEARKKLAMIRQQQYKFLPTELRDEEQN

| effect of a mutation on the interaction | Variant |
| --- | --- |
| disrupting interaction | E1015A |

From IntAct's records for PubMed 22270917
